The record followed here is paper PMC9065009, “Mechanistic insights of ABC importer HutCD involved in heme internalization by Vibrio cholerae” (Scientific Reports, 2022).

The target of experiment [1] is T1, HutD (Vibrio cholerae, UniProt Q9KL34).
T1 construct: gene hmuV
Kind of experiment: biochemical.

Experiment [2] concerns the target HutD. Kind of experiment: SEC; Superdex 200 Increase 10/300 GL; 250 uM HutD preincubated 1.5 h at 4 °C with 500 uM AMP.PNP; 500 ul injected; 50 mM Tris-HCl pH 8.0, 300 mM NaCl, 5 mM MgCl2; 0.5 ml/min; calibrated with molecular weight standards. A general note: Size exclusion chromatography separates by hydrodynamic size, large species first.
Experiment [3] concerns the target HutD. The experiment in a line: cross-linking.

Sequence of HutD (enzyme) (O52047 whole entry): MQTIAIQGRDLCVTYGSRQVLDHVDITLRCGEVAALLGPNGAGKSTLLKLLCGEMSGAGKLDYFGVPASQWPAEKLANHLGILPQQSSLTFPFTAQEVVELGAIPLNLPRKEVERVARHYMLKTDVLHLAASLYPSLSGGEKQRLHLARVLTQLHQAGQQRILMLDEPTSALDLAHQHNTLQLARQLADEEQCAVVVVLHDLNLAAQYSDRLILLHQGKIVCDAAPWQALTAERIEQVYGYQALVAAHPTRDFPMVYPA
T1 sequence (Q9KL34 whole entry, looked up): as the sequence (O52047 whole entry) above

The term Kd denotes the free concentration of one partner at which half of the binding sites on the other are occupied at equilibrium, for simple one-to-one binding. Low values mean a tighter complex, high ones a looser complex. With `Nc1ncnc2c1ncn2[C@@H]1O[C@H](COP(=O)(O)OP(=O)(O)NP(=O)(O)O)[C@@H](O)[C@H]1O` [AMP.PNP], on HutD [1], the affinity, expressed as Kd, was 94 ± 0.024 µM.
As a reminder, the stoichiometry N is a count of units in the complex or per binding partner. Regarding HutD (enzyme), the stoichiometry N with HutD [2] and with HutD [3] was 2 in each case.
